Among the data in a protein production outcome set (Wang et al. 2014) are protein production values, retold here.

A short description of this series: label from the status in PepcDB records.
Take “MNLFAPPALFRHFHRMAWLAALFTASTILFGSFVRLSDAGMSCPDWPTCYGRVTWPQTSDEANTHVASKIRPLESHKAWREQVHRFLAGALGVEVLVLSLLAVRRRRMGIAQVVSAAVLVALSIPLYMSGWHATAFGMAITGEAILLLAALRWSNIDLARAAVLTLAVVIFQALLGMWTVTLLLKPIVVMGHLLGGMLMFSLLVWMAWRATHLPITLADASRLKWLLRLGVAVLGLQIALGGWVSANYAALACGGGSWSADNFPRCVSQWWPPHDFREGFTLWRGIGVDYEGGVLDGAARIAIQMAHRLWAIATALYLWWLAWRLSRSPGMRVWAGALALLVAVQVTLGMLNVKLALPLEVSLMHNGGAVALLFVLVSLLARLRAPE”: the protein production entry is on record as “failed”.

In the case of “MELETLFVIGMFLTFGALLMTGYPVAWVLGGTAVIWTVVGVVAVENFGANLWFDYQSSMGLVPERIWKVVSSETLVALPMFIFMGIMLDQSGVAERLMNSMVKLFGAVRGGYAVTVIVIGVLLAATTGIIGASVVLLGMLSLPVMMENKYDKGFAVGTACATGTLGILIPPSIMLVLMADRLAVPEASVGDLFMGAFFPGLMLGAMYVAYAIIRPMLQPNIAPVPEGTEKVSWAIVWDVAKAVVPTAALILGVLGSIFAGIATPTEASGVGALGALLLALMSGRLNLNVLNSSMQQTTRTAAFIFAIFLGATAFSVVLRGLGGDQVIEDALLGLPFGPYGVVLTILLGVFLLGFFLDWVEITLIILPLVAPVVQQLGFDLVWFTILFAMCLQTSFLTPPVGFALFYIKGVAPPEIKVTDIYRGVIPFIIIQLVALAIVFVVPEIATWLPGVAYD”, the protein production result is reported as “failed”.

Regarding “MVEIEYRKTRIKLGDTDLVYEPAEDSFLLADAALKDAKPGMRILEIGTGSGFVSSVLLTNLKEIYLVATEINPHAARCAKMNGVKVIRTDLFKGIKSKNPENLFDLILFNPPYLPTSEEEKVPGWLNYAFDGGISGRDTLDRFLDEVRDYLKLGGEILVLISSITGLDAVKAKMEKLGFEVEVVARKKVSFEELMVVKGKLL”, the protein production result was “failed”.

With “MIKEWATVVSWQNGQAVVSCDVKASCSSCASRAGCGSRVLNKLGPQTTHTIVVPSAEPLAPGQKVELGIAEKSLLGSALLVYMSPLAGLFLCAALFQMLFGSDLAALSGAVLGGVGGFLVARGYSRKLAERDAWQPVILNVALPPDLVRVETTSIETRQ”, the protein production entry is “failed”.

As for “MNRTLAYKLGAIALLILLLLIPLLMIDGLIRDRQEVRDGVLQDIARSSSYSQRLTGPLLVVPYRRTVREWVTEEKTEKRVLQEREQRGELYFLPDRFALDGQMRTELRYRGIYQARLYHVDNKVAGYFQVPAHYGIEEDLEDYQFETPFLAMGISDIRGIENALRLSLNGASVDFEPGSRVGLLGSGVHAPLQGVDGRQAQRLEYAFDLSLLGSERLDIVPVGRDSQVILKADWPHPSFGGEFLPSEREITAQGFTARWQTSFFATNMEEALRSCVEEQRCDGFQARAFGVGLVDPVDQYLKADRAIKYALLFITLTFAGFFLFEVLKRLAVHPVQYALVGLALAFFYLLLLSLAEHVGFELAYLVSAGACVGLIGFYLCFVLRSVARGLGFSVGLAGLYGLLYGLLSAEDYALLMGSLLLFAVLAAVMVLTRRLDWYGVGRKDFPAVPARA”, the protein production result is “failed”.

Turning to “MSIEYKSEAAAVRRFPGSIVVMGVSGSGKSSVGEAIAEACGYPFIEGDALHPPENIRKMSEGIPLTDDDRWPWLAAIGERLASREPVVVSCSALKRSYRDKLRESAPGGLAFVFLHGSESVLAERMHHRTGHFMPSSLLQTQLETLEDPRGEVRTVAVDVAQPLAEIVREALAGLARL”, the protein production entry is “not failed”.

As for “PDATSKKVVPLGVEIYEINGPFFFGVADRLKGVLDVIEETPKVFILRMRRVPVIDATGMHALWEFQESCEKRGTILLLSGVSDRLYGALNRFGFIEALGEERVFDHIDKALAYAKLLVETAEERGRES”, the protein production result is given as “not failed”.

On to “MTDLSARDRLAPDSSPRLLALASIALEAGALARQSLRRRHVDQMVSKGPRDYQTEIDVAVERLIVAGVSEAFPDHAIQGEEETGNRTGGPDAPVIYIDPIDGTTNFAWGLPHFGMTIAIAEQGKITCGVVYDSMLDELFSAEIGKGATLNGEKLRCADVADVQNVLVGAGLPVPGQVKSVDEELYHRALRRLMDNTAGVRRLGSAALSIAYVACGRLDGFFEDGLQVHDYGAAALILTEAGGVVTGFGGMPVDAGGGILAASPALHPWLLAGFQPGMDR”, for which the protein production entry is “failed”.

Consider “IQNVLSYITEHFSEGMSLKTLGNDFHINAVYLGQLFQKEMGEHFTDYLNRYRVNYAKEELLQTKDNLTIIAGKSGYTDMAYFYRQFKKHTGETPNRYRKIHQ”, for which the protein production entry is “failed”.

As to “MARREICNKGVVAGVQYSHSHRQSKRTWAPNIKKVKAIVKGTPKTVHVCTRCLRSEKFKELYKKSLAKMQFNNCIFILHKNKGLEHHHHHH”, the protein production entry is recorded as “not failed”.

For “VPMNIKGLFEVAVKVKNLEKSSQFYTEILGFEAGLLDSARRWNFLWVSGRAGMVVLQEEKENWQQQHFSFRVEKSEIEPLKKALESKGVSVHGPVNLEWMQAVSLYFADPNGHALEFTAL”, the protein production entry is on record as “not failed”.

Take “MTTALRQPTLSSQCLAEFLGTALLIFFGTGCVAALKVAGASFGLWEISIIWGVGVSMAIYLTAGISGAHLNPAVSIALTLFAGFDKRKLPFYMLAQVCGAFCGAALVYTLYSNLFFDFEQAHAMLRGSEGSLELASVFSTYPHPSLSTSQAFLVEVVITAILMAVIMALTDDNNGLPRGAMAPLLIGLLIAVIGSAMGPLTGFAMNPARDFGPKLMTFLAGWGEIAFTGGRDIPYFLVPVFAPILGACLGAASYRGLIARNLPMAPAATPETNDIRQGDTQAN”: the protein production result is recorded as “failed”.

As to “MDIFQLQGLFLVLSAILGYFLHNRLSVRIVSFVNNWINLPLIFLVTYLQRGFEVSDAKIFLTSVIYNFLMFVIVLYLTREIEPFSRGSVLINSIFMNTINLPFSILLAFRGNYEISATVAVAMATLRLPIVMIIFTYLNKGISVIHNTTNNSIIRTNLSRYLPVITFLIGGSLHYVVGSVINVDIVNTINLILILIVLYEFGYQIRRVIGEMRIKDVTSKPYMIIYISRILISPILIFLILISLGITSKIIIEQVMVTAIMAPAITNVVWARVYGFGTEIIVKSTLILTPISTIIAIIFLILY”, the protein production result is reported as “failed”.

In the case of “MDAEAAKMIGAGLAAIGMIGSGIGVGNIWANLIATVGRNPAAKSTVELYGWIGFAVTEAIALFALVVALILLFAA”, the protein production entry was “failed”.

On to “MMKKLTALFVASTLALGAANLAHAAETTTAPSDSKPMMMHHKGGPGQHDMMFKGLNLTDAQKQQIRDIMKSQRENMKRPSLEERRAMHDLIASDTFDKAKAEAQIDKMEAQHKAMALSRLETQNKIYNILTPEQKKQFNANFEKHLTERNAPAGKMPAPAE”, for which the protein production result was “failed”.

In the case of “MTYFASDFQDLDNSGNIENFIRCLELQQSLDLYKYYKQKTFEKMQLKPGDSVLEVGCGTGNDALLLANYVGETGKVTAVDRSQFMLDQARERAKNSTTKFEFVLADAEQLPFPGANFTAARVDRTLQHIAQPQKAIAEMARVVQSNGWVVAFEPDWETLVIDSDQRGVTRAITNFWCDNFPSGWVGRYLFKYFRQAGLTDIAVDPITICLTEFELADKILDLSRTVEKISEQGTISQNDLTLWFKAIDQNDQAGEFFCAFTAFLVRGRKP”, the protein production result is on record as “failed”.

Take “MANVVILGGNGYLGRNITKVWLEIDPKLEFYIVSRSGQNKLVDKRIHNIKVDVTNEKDVAKKRPDTFDYIIDCIGVPEKDPEKFKQINDLPAETMLALARKQKDPVMGFISGRLGPKTFIDGKAQILKELQDSSIKVASVSPNVVYGNGRKDSMTKMVPFLKFMDLFSAKMNPDDVVKDLINQMIKLHNS”: the protein production result is recorded as “failed”.

Regarding “MNLKDLLAHRENLMDSAKRARSAITDDMDPADAAQAVENVKSIISEIESTDEAIAARRGVSDVTQKLKGLTITERGTENDSAASRSLGEHFVKAAGDRLKNQAAGAHIEYSVPEYQVKEDAHSSPKDLVEGWGTFYQRGIINQRRERLVAADLMGAATVTASTVKYIVEKANRIASGAPATVAEGTKKPYVKYADFDVVTESLSKVAALAKFTDEMIEDYDFVASWINNNLVYDLSVVEEKQLINGDGRGSNIKGLLNREGIQTHKSAKQADWFNDLFKAKNKVSQATNLEADGIMINPVNYEALRLTKDGNGQYIAGGPFQGQYGNGNILIDPPLWGIKTVVSNAVPAGTAIVGAFRQGATVLRKGGVRVDSANTNADDFENNLVTLRAEERLGLMVPLPAAFVKVTLEETTEEL”, the protein production entry is on record as “not failed”.

As for “MSSKQHCVKLNDGHLIPALGFGTYKPKEVPKSKSLEAACLALDVGYRHVDTAYAYQVEEEIGQAIQSKIKAGVVKREDLFVTTKLWCTCFRPELVKPALEKSLKKLQLDYVDLYIMHYPVPMKSGDNDFPVNEQGKSLLDTVDFCDTWERLEECKDAGLVKSIGVSNFNHRQLERILNKPGLKYKPVCNQVECHLYLNQRKLLDYCESKDIVLVAYGALGTQRYKEWVDQNSPVLLNDPVLCDVAKKNKRSPALIALRYLIQRGIVPLAQSFKENEMRENLQVFGFQLSPEDMKTLDGLNKNFRYLPAEFLVDHPEYPFVEEY”, the protein production result is reported as “not failed”.

As for “MAEKEKKTKKKKKKEKHQSSDISFKPSSDVKGLKFGGQIIVKSFTIRRARTFELLKLLSLPSSSSPPLLSTAAYLPTNFTILAHHAWHTLTLGLGTRKSKVVVFVFETEAMKSSVVAAEGGIWPSEIPLGDVNKKMIRKLKNWEMARFKFRKGCITFYVYAVRNAGNEGFAAAEDLKVILQAVVALKDFMDHTAMLVMPHQKSINYSSCPPFAMAH”, the protein production entry was “failed”.

Take “MPKLNLTSIDVLLSDDSDRRQLACKSNHSTVSSLPAMDSRESITSTSPEVAILLCTYHGQRYLPEQLASFEVQSHSNWKVWASDDGSEDGTHAILDAYSRKWPEGRLSICSGPSEGFAANFISLTCKDSIQADFYAYSDQDDIWNVNKLARAVQWLETVPVNIPALYCSRTRLVDSDDNEIGISPLFVRPPSFANALMQNIGGGNTMVFNNAARELFCEAGENTLVVAHDWWAYIAVTGCGGQVFYDREPTLRYRQHNGNLIGTNSNWSARFKRIHMLFQGEFRRWSDINIAALGALEHKLTPENREILQRFASGRKMSLIPRLIQFKRAGIYRQTLFSNFGLVVAAIFGKV”: the protein production result is “failed”.

On to “MKAGYETMTPEELRRLTATHDEADYEIVDVREPAEYRQGHLPGAKHIPVGEVEARLDELVPGRTHIFYCRSGARSRAALTFAVESGLTLGPLYDLAGGILAWDGHTVPDEPRLATFAHVSDMRSLLLRAIDMEKAVHGLYTRVRAASGRPVVCELMDRLVGVEVAHARVIYRELRKWWAAADGELPPFETLFETLEGRVLEGGRSVDELEPWIRSASTGDCHEVADLALELEFAAYDLYRTLADEAVQGSGLGEDAARVFLDLASQEKAHARMIVAAMARFGEEGADATA”, for which the protein production entry is “failed”.

“MTNLELSGSQSYLNDESTANLSSLAGKFLVQFWGVRGLIPTPSSNTSRYGGNTACVEMQVAGKRLIFDGGTGLRILGKAWQHLQQPLEAHLFFTNSQSNRIQGFPFFAPAFIAGNCFHIYGGAASNGASIKQCLCDQMLQPHFPYPLQVMQSELQFYPLTPDSEVKLDDVTIRTALINQTQRSIGYRVTWQEYSVAYVTDLNMSAEQGEREQVLQIIQDVDLLIANATYTPPTSHDHESVDLLWQAAVEMAQKAGVRKLIISHHHPDDHDDFLDQVEKEVQSTFSDALLACEGLALPVFLEHHHHHH”: the protein production entry is “not failed”.

“MNIVKLMVIIIYLIIGSALGIIIIPEIANDLGLQNSSFLKNHYVDGIIGSIFMFLIFGVFIRRVTNAIKGLEHFIMRRSAVEILFATIGLIIGLLISVMVSFILESIGNSIFNHFIPVIITILLCYFGFQFGLKKRDEMLMFLPENIARSMSQHTKSATPKIIDTSAIIDGRILEVIRCGFIDGNILIPQGVINELQIVADSNDSVKREKGKRGLDILNELYDLDYPTKVIHPTKTHSDIDTMLLKLAKQYHASIITTDFNLNKVCHVHGIKALNVNDLSEAIKPNVHQGDQLHILLTKMGKEPGQAVGYLDDGTMVVVDNAKNLIGSHVNLEVVSLLQTSSGRIVFAKKIEDTVSLLEHHHHHH”: the protein production result is on record as “failed”.
